Measured values: patent publication US20260115299A1, “CALSEQUESTRIN-BASED METAL ION REACTIVE PARTICLE AND USES THEREOF” (TOOLBIO. CO.,LTD., priority 2022, published 2026)

Assays:
[1] = system: HaCaT cells; experiment: In vitro proliferation test (XTT); format: cell-based; conditions: 2.5 nM, 2 days, compared with native KGF
Description: HaCaT cells in 96-well plates were aliquoted at a specific cell/well and incubated at 37° C. in a 5% CO2 incubator with 10% FBS and 1% P/S-DMEM for one day. Starvation was performed with FBS Free DMEM for one day. After washing twice with DPBS, CSQ-KGF, CSQ, and KGF were added to FBS-free DMEM at a concentration of 2.5 nM, and the sample was divided so that the total volume became 200 ? . After incubation in an incubator for 2 days, XTT cell availability kit reagents were aliquoted, and then 450 nm absorbance was determined with a microplate reader.

[2] = system: HaCaT cells; experiment: In vitro migration test (scratch); format: cell-based; conditions: 10 nM, 24-hour intervals, compared with native KGF
Description: HaCaT cells were aliquoted into 24-well plates at a specific cell/well and incubated at 37° C. in a 5% CO2 incubator with 10% FBS and 1% P/S-DMEM for one day. Starvation was performed with FBS Free DMEM for one day. Cells were scratched in a straight line using a 1000 ? pipette tip. After washing twice with DPBS, CSQ-KGF, CSQ, and KGF were added to FBS Free DMEM at a concentration of 10 nM, and the sample was divided so that the total volume became 500 ? . While culturing in a 5% CO2 incubator at 37° C. scratches were observed using a phase-contrast microscope at 24-hour intervals from […], and photographs were taken. The extent of wound closure was compared by analyzing the scratch area of the captured images using ImageJ.

B1: CSQ-KGF: fusion protein of human calsequestrin CSQ1 (SEQ ID No. 1) and KGF (SEQ ID No. 12) (protein)
chain: QEGLDFPEYDGVDRVINVNAKNYKNVFKKYEVLALLYHEPPEDDKASQRQFEMEELILELAAQVLEDKGVGFGLVDSEKDAAVAKKLGLTEVDSMYVFKGDEVIEYDGEFSADTIVEFLLDVLEDPVELIEGERELQAFENIEDEIKLIGYFKSKDSEHYKAFEDAAEEFHPYIPFFATFDSKVAKKLTLKLNEIDFYEAFMEEPVTIPDKPNSEEEIVNFVEEHRRSTLRKLKPESMYETWEDDMDGIHIVAFAEEADPDGFEFLETLKAVAQDNTENPDLSIIWIDPDDFPLLVPYWEKTFDIDLSAPQIGVVNVTDADSVWMEMDDEEDLPSAEELEDWLEDVLEGEINTEDDDDDDDDMCNDMTPEQMATNVNCSSPERHTRSYDYMEGGDIRVRRLFCRTQWYLRIDKRGKVKGTQEMKNNYNIMEIRTVAVGIVAIKGVESEFYLAMNKEGKLYAKKECNEDCNFKELILENHYNTYASAKWTHNGGEMFVALNQKGIPVRGKKTKKEQKTAHFLPMAIT
- proliferation efficacy (450 nm absorbance, XTT) [1]: same efficacy as native KGF
- migration efficacy (extent of wound closure, scratch area) [2]: same efficacy as native KGF
